Changes are numbered by the printed parent chain. Names may count otherwise. Blank lines part the entries; values can stand above or below the binder they belong to.
How the values were obtained:
insulin (Sigma) = target: T1, insulin (Sigma); experiment: polyreactive ELISA, insulin coated, 100 nM antibody
T1 construct: Antigen of the polyreactivity ELISA
Experimental: Insulin ([…]; Sigma) and dsDNA ([…]; Sigma) were coated onto 96-well high-binding ELISA microplates (Corning) at 50 μL per well overnight at 4° C. Plates were blocked with PBS with 0.5% BSA (blocking buffer) at room temperature (RT) for 1 h, followed by three washes with PBST (PBS with 0.1% Tween-20). 50 μL of 100 nM antibody in blocking buffer was added to each well and incubated at RT for 1 h, followed by six washes with 100 μL of PBS. 50 μL of diluted anti-human IgG-horseradish peroxidase (HRP) conjugate (Jackson ImmunoResearch) was added to the wells and incubated for 1 h followed by another six washes. Finally, 50 μL of 3, 3′, 5, 5′-Tetramethylbenzidine (TMB) substrate (Fisher Scientific) was added to each well to develop the detection signal. The reactions were stopped by adding 50 μL of 2 M sulfuric acid to each well. The absorbance was measured at 450 nm using a multimode microplate reader. Ustekinumab as the control antibody with low polyreactivity and bococizumab as a highly polyreactive antibody control were also included in the polyreactive ELISA assessment.
The first assessment tested for low non-specific binding to dsDNA and insulin by ELISA. […] Thus, by this standard, none of the tested antibodies were polyreactive.

[1] = target: T2, human CD8αα homodimer, recombinant protein (Acro Biosystems) (human, UniProt P01732 22-182); experiment: BLI steady state, whole hIgG1-LALAPA antibody on CD8α-His (Ni-NTA sensor), 30 °C
T2 construct: also called CD8αα antigen; biotinylated CD8α recombinant protein (CDA-H82E3)
T2 sequence (P01732 22-182 limits assumed): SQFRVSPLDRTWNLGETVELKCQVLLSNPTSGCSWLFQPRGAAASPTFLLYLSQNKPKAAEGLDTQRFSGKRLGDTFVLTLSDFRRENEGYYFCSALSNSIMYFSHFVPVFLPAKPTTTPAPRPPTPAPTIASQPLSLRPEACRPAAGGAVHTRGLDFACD
Experimental: (§1) To assess affinity of whole antibodies, steady state analysis was used as the bivalent nature of both whole antibody and CD8α complicates kinetic analysis. 50 nM CD8α-His (that is, CD8α with a C-terminal oligohistidine tag; Acro) was immobilized on Ni-NTA sensor probes. Binding was analyzed with a three-fold antibody dilutions series: 60 nM, 20 nM, 6.67 nM, 2.22 nM, 0.74 nM, and 0.25 nM. The antigen-loaded sensors were incubated in the diluted solutions to capture the whole IgG antibody for 300 s to record the association phase. Sensors were incubated in the kinetic buffer for 900 s to record the dissociation phase. The spin speed was 1000 rpm for all steps except the antigen loading step which was 400 rpm to control density of the antigen. The temperature of the performed assays was at 30° C. during the association and dissociation phases. The sensor data were baseline subtracted and further analyzed in GatorOne software (version 2.10) to determine the equilibrium dissociation constants (KD) of the antibodies by fitting the signals of the steady states to the 1:1 binding model.

[2] = target: T3, human CD8 on cells (CD8-overexpressing HEK293T cells, SupT1, HPB-ALL, human T cells, transfected HEK293 of … (human, UniProt P01732 22-235)); experiment: flow cytometry on CD8-overexpressing HEK293T cells, non-linear fit of normalized gMFI
T3 construct: whole, on cells; also called cell surface CD8
T3 sequence (P01732 22-235): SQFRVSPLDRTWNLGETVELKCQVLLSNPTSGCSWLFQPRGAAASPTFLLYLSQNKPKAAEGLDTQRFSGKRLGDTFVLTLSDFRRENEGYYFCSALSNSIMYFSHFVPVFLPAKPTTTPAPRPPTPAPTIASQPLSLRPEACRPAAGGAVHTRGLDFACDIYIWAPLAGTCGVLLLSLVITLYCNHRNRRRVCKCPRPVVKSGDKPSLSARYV
Experimental: To obtain the results shown in FIG. 3A, that determined EC₅₀ values for antigen-specific binding, CD8-overexpressing HEK293T cells were dissociated in Versine solution (PBS buffer at pH 7.4 supplemented with 0.5 mM EDTA), and 2×10⁵ total cells were transferred to a V-bottom 96 well culture plate (Corning). Cells were washed twice with Cell Staining buffer (#420201, Biolegend). Each anti-CD8α antibody with human IgG1 isotype and Fc-silencing mutations L234A, L235A and P329A was diluted in four-fold antibody titration series from 100 μg/mL to 6.1 ng/ml into Cell Staining buffer. eFluor 780 Fixable Viability dye (eBioscience) was also included during antibody solutions at a 1:4000 dilution. Cells were stained with each diluted antibody solution for 30 minutes on ice. Cells were then washed three times with Cell Staining buffer and primary antibody binding was detected by staining with anti-human Fc BV421 conjugate antibody (#410704, Biolegend) at 1:100 dilution for 30 minutes on ice. After staining with the secondary detection antibody, cells were washed three times with Cell Staining buffer, fixed in FluoroFix buffer (Biolegend) and kept at 4° C. in the dark until analysis. Flow cytometry analysis on each sample was performed on an Agilent NovoCyte flow cytometer. Flow cytometry data was analyzed by Flowjo 10 (Becton, Dickinson & Company) to measure the geometric median fluorescence intensity (gMFI) of the on-cell binding from each antibody. The gMFI values were normalized with the gMFI measured in the sample stained with only the secondary detection antibody and plotted against the concentration of the added antibodies. The binding curves were constructed using the Graphpad Prism software, and EC₅₀ values were determined by non-linear curve fitting.

[3] = target: T4, custom recombinant human CD8α mouse IgG2a Fc fusion protein (human; mouse, UniProt P01732 22-182, limits assumed); experiment: BLI kinetic sensorgram, 1:1 global fit, 37 °C
T4 construct: Custom protein; also called human CD8α mouse Fc fusion protein; not shown: mouse IgG2a Fc
T4 sequence (P01732 22-182 limits assumed): as the sequence (P01732 22-182 limits assumed) above
Experimental: (§2) The global fitting was performed with a 1:1 fitting model using GatorOne software as described below.
(§3) To measure the binding kinetics of the biotin-conjugated Fab molecule, streptavidin-immobilized SA-XT sensors (#160029, Gator Bio) were prehydrated in the kinetic buffer and loaded with […] biotinylated Fab sample CBD1033.37 or CBD1033.24 to a threshold response of 10 nm. […] The binder-loaded sensors were incubated in the diluted solutions to capture the CD8α protein for 1200 s to record the association phase. Sensors were finally incubated in the kinetic buffer for another 1200 s to record the dissociation phase. The spin speed for all steps was 1000 rpm. The temperature of the performed assays were at 37° C. during the association and dissociation. The sensor data were baseline subtracted, and global curve fitting of the kinetic data from six different analyte concentrations at a 1:1 monovalent binding model was performed using the GatorOne software (version v2.10) to determine the kinetic rate constants (kₒₙ and koff) and equilibrium dissociation constants (KD) of the analyzed binder.

[4] = target: T4, custom recombinant human CD8α mouse …; experiment: BLI kinetics, biotin-conjugated F(ab') on SA-XT sensor, HuCD8a mouse Fc fusion as analyte, 37 °C
Experimental: as §2, §3

[5] = target: T2, human CD8αα homodimer, recombinant …; experiment: BLI kinetic sensorgram, 1:1 global fit
Experimental: as §2, §3

[6] = target: T2, human CD8αα homodimer, recombinant …; experiment: BLI kinetic assay, engineered F(ab') fragment
Experimental: as §2
Biolayer interferometry kinetic assays were performed using a GatorBio Gator Plus BLI system. Kinetic buffer containing PBS plus 0.1% Tween 20 and 0.2% BSA was used for calculating the baseline. To measure the binding kinetics of anti-CD8α antibody fragment (Fab), streptavidin-immobilized SA-XT sensors (#160029, Gator Bio) were prehydrated in the kinetic buffer and loaded with […] biotinylated CD8α recombinant protein (CDA-H82E3, Acro Biosystems) at a spin speed of 400 rpm to a threshold response of 10 nm. The sensors were then incubated in the kinetic buffer for 300 s to acquire a baseline measurement prior to each association. […] The antigen-loaded sensors were incubated in the diluted solutions to capture Fab fragments for 300 s to record the association phase. Sensors were finally incubated in the kinetic buffer for 900 s to record the dissociation phase. The spin speed for all steps except the antigen loading step was 1000 rpm. The temperature of the performed assays was either 30° C. or 37° C. during the association and dissociation phases. Sensor data were baseline subtracted, and global curve fitting of the kinetic data from six different analyte concentrations at a 1:1 monovalent binding model was performed using GatorOne software (version v2.10) to determine kinetic rate constants (kₒₙ and koff) and equilibrium dissociation constants (KD) of the analyzed antibodies.

[7] = target: T2, human CD8αα homodimer, recombinant …; experiment: BLI steady state analysis of the data of FIG. 2G
Experimental: as §1

[8] = target: T2, human CD8αα homodimer, recombinant …; experiment: BLI steady state, whole hIgG1-LALAPA antibody on CD8α-His (Ni-NTA sensor), 30 °C; remark: listed apart in the source
Experimental: as §1

[9] = target: T2, human CD8αα homodimer, recombinant …; experiment: BLI, whole antibody
[10] = target: T2, human CD8αα homodimer, recombinant …; experiment: BLI, whole antibody, steady state dissociation constant (column head x10^-9M)
Experimental: as §1

[11] = target: T2, human CD8αα homodimer, recombinant …; experiment: BLI kinetic rate KD on whole antibodies

T1 sequence (P01308 25-54, chain 1 of 2): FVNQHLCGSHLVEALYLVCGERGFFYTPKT
T1 sequence (P01308 90-110, chain 2 of 2): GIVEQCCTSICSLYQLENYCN

B1: CBD1032 whole antibody, Fc-silenced human IgG1 (LALAPA) (antibody, V domains shown)
VH: QVQLVQSGAEVKKPGASVKVSCKASRYTFTDYNLHWVRQAPGQGLEWMGFIYPYNGGTGYAQKFQGRVTMTRDTSTSTVYMELSSLRSEDTAVYYCARDHRYNEGVSFDYWGQGTTVTVSS
VL: DIQMTQSPSSLSASVGDRVTITCRASESVDGFGNSFMNWYQQKPGKAPKLLIYLASNLESGVPSRFSGSGSGTDFTLTISSLQPEDFATYYCQQNNEDPYTFGQGTKLEIKR
polyreactivity ELISA score (insulin (Sigma)): 1
Kd [1]: 1.4 nM
EC50 [2]: 2.35 nM

B3: CBD1033.37 disulfide-engineered F(ab') analog (IgG1-derived) (Fab, V domains shown)
VH: B1 VH with R72V, V79A
VL: B1 VL with M4L, V19A, L82V
notes: Engineered CH1-F174C / CK-S162C interchain disulfide; native disulfide removed; also called .37 design
Kd [5]: 4.01 nM
koff [5]: 6.28e-05 s⁻¹
kon [5]: 15600 M⁻¹ s⁻¹
Kd [6]: 4.01 nM
koff [6]: 6.28e-05 s⁻¹
kon [6]: 15600 M⁻¹ s⁻¹

B5: CBD1043 (antibody, human IgG1, kappa, L234A L235A, V domains shown)
VH: B1 VH with M48I, M70I, R72A, V79A, T116L
VL: EIVLTQSPGTLSLSPGERATLSCRASESVDGFGNSFMNWYQQKPGQAPRLLIYLASNLESGVPARFSGSGSGTDFTLTISRLEPEDFAVYYCQQNNEDPYTFGQGTKVEIKR
notes: also called CBD1043- hIgG1LALAPA; h1017-H7/L5 whole antibody
Kd [7]: 3.91 nM
Kd [8]: 3.91 nM

B9: CBD1034 whole antibody, Fc-silenced human IgG1 (LALAPA) (antibody, V domains shown)
VH: B1 VH with R72V, V79A
VL: B1 VL with M4L, V19A, G72R, L82V
polyreactivity ELISA score (insulin (Sigma)): 1
Kd [1]: 4.63 nM
EC50 [2]: 2.71 nM

B10: CBD1380 whole antibody (VH N55S of CBD1033), Fc-silenced human IgG1 (antibody, V domains shown)
VH: B1 VH with N55S, R72V, V79A
VL: B1 VL with M4L, V19A, L82V
koff [9]: 0.00192 s⁻¹
kon [9]: 1.86e+06 M⁻¹ s⁻¹
Kd [10]: 0.76 nM

B11: CBD1040 whole antibody, Fc-silenced human IgG1 (LALAPA) (antibody, V domains shown)
VH: B1 VH with V20I, M48I, V68A, M70L, R72V, T74Y, V79A, V117L
VL: B1 VL with M4L, V19A, G72R, L82V
polyreactivity ELISA score (insulin (Sigma)): 1
Kd [1]: 4.06 nM
EC50 [2]: 2.54 nM

B12: CBD1039 whole antibody, Fc-silenced human IgG1 (LALAPA) (antibody, V domains shown)
VH: B1 VH with V20I, M48I, V68A, M70L, R72V, T74Y, V79A, V117L
VL: B1 VL with M4L, V19A, L82V
polyreactivity ELISA score (insulin (Sigma)): 1
Kd [1]: 1.76 nM
EC50 [2]: 4.39 nM

B13: CBD1035 whole antibody, Fc-silenced human IgG1 (LALAPA) (antibody, V domains shown)
VH: B1 VH with V20I, M48I, V68A, M70L, R72V, V79A, V117L
VL: B1 VL with M4L, V19A, L82V
polyreactivity ELISA score (insulin (Sigma)): 1
Kd [1]: 2.66 nM
EC50 [2]: 1.75 nM

Results, then the binder that gave them:

Kd [3]: 6.85 nM
koff [3]: 0.000144 s⁻¹
kon [3]: 20900 M⁻¹ s⁻¹
Kd [4]: 6.85 nM
koff [4]: 0.000144 s⁻¹
kon [4]: 20900 M⁻¹ s⁻¹
B2: maleimide-PEG-biotin conjugated CBD1033.37 F(ab') (Fab, V domains shown)
VH: B1 VH with R72V, V79A
VL: B1 VL with M4L, V19A, L82V
modifications: maleimide-PEG11-biotin on CH C230 (sequential numbering, corresponding to C239 in Kabat numbering)
notes: Loaded on streptavidin sensors through the biotin; also called biotinylated Fab sample CBD1033.37

Kd [4]: 4.01 nM
koff [4]: 0.00013 s⁻¹
kon [4]: 32400 M⁻¹ s⁻¹
B4: maleimide-PEG-biotin conjugated CBD1033.24 F(ab') (IgG4-derived) (Fab, V domains shown)
VH: B1 VH with R72V, V79A
VL: B1 VL with M4L, V19A, L82V
modifications: maleimide-PEG11-biotin on CH C227 (sequential numbering, corresponding to C239 in Kabat numbering)
notes: Loaded on streptavidin sensors through the biotin; also called biotinylated Fab sample CBD1033.24

koff [9]: 0.000795 s⁻¹
kon [9]: 1.91e+06 M⁻¹ s⁻¹
Kd [10]: 0.5 nM
B6: CBD1381 whole antibody (VH N55Q of CBD1033), Fc-silenced human IgG1 (antibody, V domains shown)
VH: B1 VH with N55Q, R72V, V79A
VL: B1 VL with M4L, V19A, L82V

koff [9]: 0.00303 s⁻¹
kon [9]: 1.1e+06 M⁻¹ s⁻¹
fold reduction of affinity compared to CBD1033 [11]: ~5.5 fold
Kd [10]: 7.94 nM
B7: CBD1383 whole antibody (VH N55D of CBD1033, deamidation mimic), Fc-silenced human IgG1 (antibody, V domains shown)
VH: B1 VH with N55D, R72V, V79A
VL: B1 VL with M4L, V19A, L82V
notes: also called 100% deamidation mimic

koff [9]: 0.00195 s⁻¹
kon [9]: 1.63e+06 M⁻¹ s⁻¹
Kd [10]: 0.88 nM
B8: CBD1382 whole antibody (VH N55A of CBD1033), Fc-silenced human IgG1 (antibody, V domains shown)
VH: B1 VH with N55A, R72V, V79A
VL: B1 VL with M4L, V19A, L82V
